# Measurements from patent US20200109196A1 (MOGAM INSTITUTE FOR BIOMEDICAL RESEARCH, published 2020).
# Residue numbers refer to the chain shown, from its start.
# T1: CEACAM5 expressed on the surface of HEK293 cells (human, UniProt P06731 35-685)
# T1 construct: whole, on cells; GFP-tagged clone; also called CEACAM5-GFP
# T1 sequence (looked up): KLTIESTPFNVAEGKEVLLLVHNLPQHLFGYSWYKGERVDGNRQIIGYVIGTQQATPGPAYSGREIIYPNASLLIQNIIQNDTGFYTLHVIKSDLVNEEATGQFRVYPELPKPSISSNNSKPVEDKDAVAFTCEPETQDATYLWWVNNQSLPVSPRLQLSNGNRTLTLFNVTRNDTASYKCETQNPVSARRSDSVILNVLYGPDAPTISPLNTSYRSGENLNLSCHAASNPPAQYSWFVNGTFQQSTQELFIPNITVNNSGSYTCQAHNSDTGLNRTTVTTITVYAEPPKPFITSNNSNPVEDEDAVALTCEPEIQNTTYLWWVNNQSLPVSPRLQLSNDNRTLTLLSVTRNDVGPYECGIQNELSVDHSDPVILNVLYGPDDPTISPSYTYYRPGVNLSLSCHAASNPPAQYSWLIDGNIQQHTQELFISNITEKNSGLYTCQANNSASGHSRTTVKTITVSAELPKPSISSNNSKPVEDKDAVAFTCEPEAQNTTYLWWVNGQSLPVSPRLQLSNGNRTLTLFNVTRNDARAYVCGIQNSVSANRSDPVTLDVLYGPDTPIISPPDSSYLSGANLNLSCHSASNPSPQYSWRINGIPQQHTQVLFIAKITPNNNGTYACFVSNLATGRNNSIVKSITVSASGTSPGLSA
# T2: CEACAM6 expressed on the surface of HEK293 cells (human, UniProt P40199 35-320)
# T2 construct: whole, on cells; GFP-tagged clone; also called CEACAM6-GFP
# T2 sequence (looked up): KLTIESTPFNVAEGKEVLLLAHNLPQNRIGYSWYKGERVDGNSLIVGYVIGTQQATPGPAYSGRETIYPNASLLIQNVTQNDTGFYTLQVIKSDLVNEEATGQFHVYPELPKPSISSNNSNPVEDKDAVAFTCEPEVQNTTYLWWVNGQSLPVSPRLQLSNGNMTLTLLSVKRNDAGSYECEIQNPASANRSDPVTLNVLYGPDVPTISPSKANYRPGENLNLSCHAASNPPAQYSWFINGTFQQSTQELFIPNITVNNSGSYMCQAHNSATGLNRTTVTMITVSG
# T3: CEACAM3 expressed on the surface of HEK293 cells (human, UniProt P40198 35-252)
# T3 construct: whole, on cells; GFP-tagged clone; also called CEACAM3-GFP
# T3 sequence (looked up): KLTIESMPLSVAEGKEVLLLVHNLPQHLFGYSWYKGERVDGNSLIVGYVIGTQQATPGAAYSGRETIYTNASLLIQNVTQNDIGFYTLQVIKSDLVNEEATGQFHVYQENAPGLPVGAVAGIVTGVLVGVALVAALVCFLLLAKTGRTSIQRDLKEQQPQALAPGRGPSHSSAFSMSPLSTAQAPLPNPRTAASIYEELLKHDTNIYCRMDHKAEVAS
# T4: CEACAM8 expressed on the surface of HEK293 cells (human, UniProt P31997 35-320)
# T4 construct: whole, on cells
# T4 sequence (looked up): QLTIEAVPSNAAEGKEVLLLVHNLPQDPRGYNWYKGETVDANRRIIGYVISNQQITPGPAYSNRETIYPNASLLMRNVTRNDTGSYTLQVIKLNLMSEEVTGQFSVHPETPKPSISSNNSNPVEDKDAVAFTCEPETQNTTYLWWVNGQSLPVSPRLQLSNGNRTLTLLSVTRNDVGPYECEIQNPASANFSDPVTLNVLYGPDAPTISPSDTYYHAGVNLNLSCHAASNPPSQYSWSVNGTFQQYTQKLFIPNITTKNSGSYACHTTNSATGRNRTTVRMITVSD
# B1: 4R26 (antibody, human IgG4 S228P, lambda, V domains shown)
# VH: EVQLLESGGGLVQPGGSLRLSCAASGFTFSNYAMSWVRQAPGKGLEWVSVISHGGGSIYYADSVKGRLTISRDNSKNTLYLQMNSLRAEDTAVYYCARDPTKGYAPTFDYWGQGTLVTVSS
# VL: QSVLTQPPSASGTPGQRVTISCSGSSSNIGNNYVSWYQQLPGTAPKLLIYADSKRLSGVPDRFSGSKSGTSASLAISGLRSEDEADYYCGAWDGRLNGYVFGGGTKLTVLG
# notes: also called C25-derived clone 4R26
# B2: 4R9 (antibody, human IgG4 S228P, lambda, V domains shown)
# VH: B1 VH
# VL: B1 VL with K54R, L56P, G94L, R95S
# notes: also called C25-derived clone 4R9
# B3: 4R9_H2-2 (antibody, human IgG4 S228P, lambda, V domains shown)
# VH: B1 VH with T107L
# VL: B1 VL with K54R, L56P, G94L, R95S
# notes: also called C25-derived clone 4R9_H2-2
# B4: 4R9_H4-n20 (antibody, human IgG4 S228P, lambda, V domains shown)
# VH: B1 VH with T28N
# VL: B1 VL with K54R, L56P, G94L, R95S
# notes: also called C25-derived clone 4R9_H4-n20
# Target: T1, CEACAM5 expressed on the surface of …
# Test: flow cytometry on transfected HEK293 cells (GFP+ gate), PE goat anti-huIgG4 [b]
# Procedure: (§1) HEK293 cells were added with 10 μg of each pEF1α-AcGFP-N1 vector (Clontech, Cat. No. 631973) as a control vector, CEACAM1, CEACAM3, CEACAM5, CEACAM6 and CEACAM8 plasmid vectors, followed by transfection under the condition of pulse voltage 1,100 V, pulse width 20 ms and pulse number 2. After 48 hours of transfection, GFP expression was confirmed by fluorescence microscopy. The cells were detached by treatment with 1 ml of TrypLE Express Solution (ThermoFisher Scientific; Cat. No. 12605010), resuspended in 9 ml of DMEM (Gibco, Cat. No. 11995-065) supplemented with 10% (v/v) FBS, and centrifuged at 1,200 rpm for 5 minutes, to remove the resulting supernatant.
# (§2) After washing once with PBS, the cells were resuspended in a FACS buffer to obtain a concentration of 5×10⁵ cells/100 μl. Human Fc Block solution was added to the samples at 1 μl/sample, which were incubated at 4° C. for 10 minutes. The cells were treated with hulgG4 or one of the anti-CEACAM1 clones listed at 1 μg/5×10⁵ cells, which were incubated at 4° C. for 10 minutes. After washing with FACS buffer, the PE-labeled goat-anti-huIgG4 antibodies were diluted at a ratio of 1:200 in a FACS buffer, and added to the samples at 100 μl/sample, which were incubated at 4° C. for 30 minutes. The samples were filled with a FACS buffer up to 200 μl, and then centrifuged at 1,200 rpm for 5 minutes, to remove the resulting supernatant. The fixation buffer (300 μl) was added to resuspend the cells. The cells expressing GFP were selected in the FACS LSR-Fortessa device, and the expression of CEACAM members were evaluated respectively using the antibody specific to each CEACAM member (Table 3). Also, the binding of anti-CEACAM1 antibodies was evaluated by PE fluorescence channel and analyzed using the FlowJo software.
row,binding result,Binder
1,no binding,B1
2,no binding,B2
3,no binding,B3
4,no binding,B4

# Target: T2, CEACAM6 expressed on the surface of …
# Test: as above
# Procedure: as §1, §2
row,binding result,Binder
1,no binding,B1
2,no binding,B2
3,no binding,B3
4,no binding,B4

# Target: T3, CEACAM3 expressed on the surface of …
# Test: as above
# Procedure: as §1, §2
row,binding result,Binder
1,no binding,B1
2,no binding,B2
3,no binding,B3
4,no binding,B4

# Target: T4, CEACAM8 expressed on the surface of …
# Test: as above
# Procedure: as §1, §2
row,binding result,Binder
1,no binding,B1
2,no binding,B2
3,no binding,B3
4,no binding,B4
